According to the supplement of paper PMC9170038:

Test system: MS2 coat protein
Assay: apparent KD of MS2 coat protein; designed switch direction (-1 OFF switch, 1 ON switch): -1; higher = weaker reporter binding
In short: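 The reported apparent KD is a per-design median over clusters, from curve fits of normalised cluster fluorescence. Protein titrations used SNAP-549-labelled MS2 coat protein, doubled from 0.7 or 1.5 nM to 3 µM, in Tris-HCl pH 7.5 buffer with KCl, MgCl2, BSA, DTT, tRNA and Tween-20, with no input, 200 uM small-molecule ligand, or an oligonucleotide input. The RNA switches were transcribed on Illumina chips by stalled E. coli RNA polymerase.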

[1] = Eterna round: R95, input ligand: FMN 200 uM
[2] = Eterna round: R95, input ligand: microRNA oligo, concentration not stated
[3] = Eterna round: R95, input ligand: none
[4] = input ligand: microRNA oligo, concentration not stated

Sequence | apparent KD of MS2 coat protein (input ligand: FMN 200 uM) [nM] | apparent KD of MS2 coat protein (input ligand: none) [nM] | apparent KD of MS2 coat protein [1] [nM] | apparent KD of MS2 coat protein [2] [nM] | apparent KD of MS2 coat protein [3] [nM] | apparent KD of MS2 coat protein [4] [nM]
UAAGGACAUGAGGAUCACCCAUGUUAGGAUAUGCCGAGGGAGACCCGUGUUGACACUUGCAGAAGGAGUAUGGG [Eternabot (L1) Solution 25] (Eterna round: R97, puzzle: Exclusion 1) | 70.4 | 86.2 | – | – | – | –
UAAGUGUGAGGAUAUGGUAAAGAUAGAAUGAUGAAAGAACUCCAGAAGGCACAUGAGGAUCACCCAUGUAGAUG [Mat - Exclusion 4 - Mod of JL - D24] (puzzle: Exclusion 4) | – | – | 60.2 | 30.8 | 31.9 | –
UAAUACAAGUAGAGAUUCUACAUGAGGAUCACCCAUGUGCUCGUCUUAUAAAGUACUAUCACGAAAGUGAUAGUACA [Mat - Sensor v3 - turn-off var 1 - Eli Mod - D97] (Eterna round: R96, puzzle: Sensor v3, turn-off variant 1) | 22.1 | 22.4 | – | – | – | 124
UAAUACAAGUAGAGAUUCUACAUGAGGAUCACCCAUGUGCUCGUCUUAUAAAGUACUAUCACGAAAGUGAUAGUACA [Mat - Sensor v3 - turn-off var 1 - Eli Mod - D97] (puzzle: Sensor v3, turn-off variant 1) | – | – | 23 | 322 | 19.7 | –
UAAUACAAGUAGAGAUUCUACAUGAGGAUCACCCAUGUGCUCGUCUUAUAAAGUACUAUCACGAAAGUGAUAGUACU [Mat - Sensor v3 - turn-off var 1 - Eli Mod - D98] (puzzle: Sensor v3, turn-off variant 1) | – | – | 18.3 | 192 | 17.4 | –
UAAUAGCAAGCAAGAUCCCACAUGAGGAUCACCCAUGUGCUCGUCUUAUAAGGUACUGUGACGAAAGUCACGGUACC [Sensor 3, v1 - 98] (puzzle: Sensor v3, turn-off variant 1) | – | – | 45.5 | 535 | 47.5 | –
UAAUAUCUGCAGGAUAUCGGUGUAGCACGCGUAUGAGAAGGGCAGACAUGAGGAUCACCCAUGUAUAGGGUCCG [BotMod 1 - Jieux - Exclusion 6] (Eterna round: R97, puzzle: Exclusion 6) | 246 | 49.4 | – | – | – | –
UAAUUGAUUAAUAAAUAAUACAUGAGGAUCACCCAUGUAGAUCCUACAUACCAUUUAAGUAGCUCGUCUUAUUAUUA [Sensor-V1 #62] (Eterna round: R97, puzzle: Sensor, turn-off variant 1) | 217 | 213 | – | – | – | –
UACAUGAGGAUCACCCAUGUUUUGUCGUGUAUGGUAUUUAUCUAGGAUAUCAAUGGAUUUAUUUAUGAGAAGGAGAAUAUUAAU [JMF's solution 38] (Eterna round: R96, puzzle: Exclusion NG 3) | 39.6 | 32.3 | – | – | – | 25.6
UACAUGAGGAUCACCCAUGUUUUGUCGUGUAUGGUAUUUAUCUAGGAUAUCAAUGUAUUUAUUUAUGAGAAGGAGAAUAUUAAU [JMF's solution 12] (Eterna round: R96, puzzle: Exclusion NG 3) | – | – | – | – | – | 29.6
UACAUGAGGAUCACCCAUGUUUUGUCGUGUAUGGUAUUUAUCUAGGAUAUCAAUUUGUGUAUUUAUGAGAAGGAGAAUAUUAAU [JMF's solution 68] (Eterna round: R96, puzzle: Exclusion NG 3) | 44 | 45.8 | – | – | – | 29.5
UACAUGAGGAUCACCCAUGUUUUGUCGUGUAUGGUAUUUAUCUAGGAUAUCAUAUUAUUUAGUUAUGAGAAGGAGAAUAUUAAU [JMF's solution 80] (Eterna round: R96, puzzle: Exclusion NG 3) | 24.9 | 19.3 | – | – | – | 12.7
UACAUGAGGAUCACCCAUGUUUUGUCGUGUAUGGUAUUUAUCUAGGAUAUCAUGUUAUUUAGUUAUGAGAAGGAGAAUAUUAAU [JMF's solution 81] (Eterna round: R96, puzzle: Exclusion NG 3) | 45.6 | 38.5 | – | – | – | 31.3
UACAUGAGGAUCACCCAUGUUUUGUCGUGUAUGGUAUUUAUCUAGGAUAUCAUUAUAUUUAUUUAUGAGAAGGAGAAUAUUAAU [JMF's solution 97] (Eterna round: R96, puzzle: Exclusion NG 3) | 29.9 | 27.6 | – | – | – | 21.9
UACCUGAGGCAAAGCUUUAGGCUUACAUGAGGAUCACCCAUGUAGGAUAUGGUAGGCAAAGCUUACCAGAAGGACAUGGAAAUU [Mat - Exclusion NG 3 - Mod of JL - D23] (Eterna round: R96, puzzle: Exclusion NG 3) | 398 | 86.8 | – | – | – | 68.1
UAGAAAGGUAAGGAUAUCCUUGAGAAAGAAAGAGGAGAAGGUACCACAUGAGGAUCACCCAUGUGGCUCUCAAA [jl-ex6-4.57 Nando mod] (Eterna round: R97, puzzle: Exclusion 6) | 15.2 | 13.7 | – | – | – | –
UAGAAGCUCAGGGAGUGAGACAUGAGGAUCACCCAUGUGGUGGUAGGGAACAAGCUUUUUGCACGUACUUAUGAGGA [JR_SV3TOV1_Sub006] (puzzle: Sensor v3, turn-off variant 1) | – | – | 367 | 134 | 189 | –
UAGAAGGUAGGAUAUACGAAUAAAUAGGGUAGUAAGAAGACACAUGAGGAUCACCCAUGUAGAAGGACCAAGAU [Mat - Exclusion 2 - Mod of my Tesla design - D33] (puzzle: Exclusion 2) | – | – | 33.5 | 19.4 | 20.6 | –
UAGAUGGGAGGAUAUACGUAGAUGCAGGUUCGUGUGGUGCUACAUGAGGAUCACCCAUGUAGAAGGCCCGUCUU [JL-ex2-2.29 Mayanne mod] (Eterna round: R96, puzzle: Exclusion 2) | 69.4 | 18.4 | – | – | – | 14.1
UAGAUGGGAGGAUAUACGUAGAUGCAGGUUCGUGUGGUGCUACAUGAGGAUCACCCAUGUAGAAGGCCCGUCUU [JL-ex2-2.29 Mayanne mod] (puzzle: Exclusion 2) | – | – | – | 13.6 | – | –
UAGAUGGGAGGAUAUACGUAGAUGCAGGUUCGUGUGGUGCUACAUGAGGAUCACCCAUGUAGAAGGCCCGUCUU [Resubmit R3 JL-ex2-2.29] (Eterna round: R97, puzzle: Exclusion 2) | 77.4 | 18.4 | – | – | – | –
UAGGUACAUGAGGAUCACCCAUGUGAGGAUAUAGAUGAAGAUUGCGAGAGGGAGAGGACUAGAAGGCACAGUGG [JR_Exclu1_Sub036] (puzzle: Exclusion 1) | – | – | – | 30.9 | – | –
UAGGUACAUGAGGAUCACCCAUGUGAGGAUAUAGUUGAAGAUUGCGAGAGGGAGAGGACUAGAAGGCACAGUGG [JR_Exclu1_Sub037] (puzzle: Exclusion 1) | – | – | – | 40.9 | – | –
UAGGUACGAGGAUAUACAUAGAUACAGACACAUGUAGAUGUACAUGAGGAUCACCCAUGUAGAAGGCGUAUAUA [Mat - Same state - Mayanna Mod - D110] (Eterna round: R96, puzzle: Exclusion 2) | – | – | – | – | – | 60.7
UAGUUACAUGAGGAUCACCCAUGUGAGGAUAUGAGUCAGUCACGGUGACGUGGCUGACUCAGAAGGCACAAAGG [Mat - Exclusion 1 - JL Mod - D38] (Eterna round: R97, puzzle: Exclusion 1) | 430 | 126 | – | – | – | –
UAUAAACAUGAGGAUCACCCAUGUGAGGAUAUCAAAACCAGAGCGGAUCUCUGGCCCAUGAGAAGGUGCAUGGU [ElNandoxlusion 8 - Jieux - Exclusion 1] (Eterna round: R97, puzzle: Exclusion 1) | 137 | 26.2 | – | – | – | –
UAUAAGAUAGGAUAUACAGGCCCGUCUUCAUAUCGAUCCCGACAUGAGGAUCACCCAUGUAGAAGGAUCGUGAG [Mod 21 - Jieux - Exclusion 2] (Eterna round: R97, puzzle: Exclusion 2) | 13.8 | 13.7 | – | – | – | –
UAUAAUUUUUUUUUUUUACAAGCUUUUUGCUCGUCUUAUACAUGAGGAUCACCCAUGUGGGUGAAAGAUAGAUUGUC [JMF's solution 2] (puzzle: Sensor v3, turn-off variant 2) | – | – | 37.7 | 15.5 | 41.2 | –
UAUACCCGAGGAUAUACAUGAGGAUCACCCAUGUAGUGAAAGCUCUAAGAGCGCUCAGGUAGAAGGCGGAUUAA [EX3 A.9] (Eterna round: R97, puzzle: Exclusion 3) | 24.9 | 18.8 | – | – | – | –
